Reference: article PMC5175356
Substitutions are numbered along the chain they refer to. Like-named read-outs stand apart in the source and are kept apart here.

Key:
AtPOT1a OB1 [1] = biological target: T1, AtPOT1a OB1 (Arabidopsis thaliana, UniProt Q56Y52 1-158); assay: competition
T1 sequence: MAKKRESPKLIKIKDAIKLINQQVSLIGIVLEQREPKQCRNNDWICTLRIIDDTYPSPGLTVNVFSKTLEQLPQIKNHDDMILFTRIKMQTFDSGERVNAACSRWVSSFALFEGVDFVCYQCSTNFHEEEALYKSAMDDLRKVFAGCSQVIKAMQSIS

AtPOT1a OB1 [2] = biological target: T1, AtPOT1a OB1; assay: EMSA
AtPOT1a OB1 [3] = biological target: T1, AtPOT1a OB1; assay: EMSA; remark: listed apart in the source
AtPOT1b OB1 = biological target: T2, AtPOT1b OB1 (Arabidopsis thaliana, UniProt Q6NKX5 1-159); assay: EMSA
T2 sequence: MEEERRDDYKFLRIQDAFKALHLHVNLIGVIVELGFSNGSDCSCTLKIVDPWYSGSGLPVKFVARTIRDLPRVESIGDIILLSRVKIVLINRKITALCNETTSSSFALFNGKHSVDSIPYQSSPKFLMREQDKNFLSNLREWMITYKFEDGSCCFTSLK

AtPOT1a OB1 F65A = biological target: T3, AtPOT1a OB1 F65A (Arabidopsis thaliana, UniProt Q56Y52 1-158, F65A); assay: EMSA
T3 sequence: T1 sequence with F65A

AtPOT1a OB1 [4] = biological target: T1, AtPOT1a OB1; assay: EMSA; remark: listed apart in the source
AtPOT1b OB1 V63F = biological target: T4, AtPOT1b OB1 V63F (Arabidopsis thaliana, UniProt Q6NKX5 1-159, V63F); assay: EMSA
T4 sequence: T2 sequence with V63F

AtPOT1a OB1 [5] = biological target: T1, AtPOT1a OB1; assay: EMSA; remark: listed apart in the source

Binder: TTAATTAACCCGGGGATCCGGCTTGATCAACGAATGATCC (ssDNA) [NS DNA]
- binding signal (AtPOT1a OB1 [1]): 10 % reduction of binding

Binder: TTTAGGG (ssDNA)
- binding result (AtPOT1a OB1 [2]): no binding

Binder: TTAGGGTTTAGG (ssDNA) [12-mer telomere]
- binding result (AtPOT1a OB1 [3]): binds

Binder: UUUAGGGUUUAGGGUUUAGGGUUUAGGGUUUAGGG (ssRNA) [(UUUAGGG)5]
- binding signal (AtPOT1a OB1 [1]): 10 % reduction of binding

Binder: TTTAGGGTTTAGGGTTTAGGGTTTAGGGTTTAGGG (ssDNA) [(TTTAGGG)5]
- binding result (AtPOT1b OB1): no binding
- binding result (AtPOT1a OB1 F65A): no binding
- Kd (AtPOT1a OB1 [4]): 230 ± 30 nM
- binding result (AtPOT1b OB1 V63F): binds

Binder: TAGGGTTTAGG (ssDNA) [minimal binding site 11-mer]
- binding result (AtPOT1a OB1 [5]): binds

Binder: TTTAGGGTTTAGGG (ssDNA) [(TTTAGGG)2]
- Kd (AtPOT1a OB1 [4]): ~1000 nM
